Laboratory results reported in publication PMC3118390, “PKC isoforms interact with and phosphorylate DNMT1” (BMC Biology, 2011).

T1: recombinant PKCζ (human, UniProt Q05513 1-592)
T1 construct: also called rec; PKCζ
T1 sequence (looked up): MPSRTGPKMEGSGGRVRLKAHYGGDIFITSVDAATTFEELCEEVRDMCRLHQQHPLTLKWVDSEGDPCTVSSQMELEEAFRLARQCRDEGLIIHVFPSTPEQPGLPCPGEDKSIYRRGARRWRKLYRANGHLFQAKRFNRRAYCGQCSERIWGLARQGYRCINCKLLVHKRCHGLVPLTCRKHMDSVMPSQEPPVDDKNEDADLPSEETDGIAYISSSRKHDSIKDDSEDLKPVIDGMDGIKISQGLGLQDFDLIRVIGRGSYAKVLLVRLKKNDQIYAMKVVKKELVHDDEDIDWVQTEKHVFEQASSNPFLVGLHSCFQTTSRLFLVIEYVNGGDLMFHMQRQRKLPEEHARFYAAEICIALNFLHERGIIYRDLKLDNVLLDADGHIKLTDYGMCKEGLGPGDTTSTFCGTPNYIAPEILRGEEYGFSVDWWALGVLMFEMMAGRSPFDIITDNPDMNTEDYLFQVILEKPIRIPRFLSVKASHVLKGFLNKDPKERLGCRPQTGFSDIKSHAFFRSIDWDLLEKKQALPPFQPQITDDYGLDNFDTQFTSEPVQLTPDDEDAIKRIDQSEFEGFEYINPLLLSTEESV


Target: T1, recombinant PKCζ
Experiment: pull-down; GST fusion DNMT1 fragments on glutathione beads, pre-incubated with 100 μg/ml BSA; 10 ng recombinant PKCζ, 4°C, one hour; binding buffer 50 mM Tris pH 7.5, 28 μM ZnCl2, 1% Triton X-100, 220 mM NaCl, 10% glycerol; washes with 500 mM NaCl; blot with a PKCζ antibody
Conditions: both partners purified

binding result	Binder
binds	GST fusion DNMT1 fragment 1374 to 1616 (domain or fragment, human, UniProt P26358 1374-1616, looked up, source: E. coli BL21, purified on glutathione-Sepharose beads) LPEVRNGASALEISYNGEPQSWFQRQLRGAQYQPILRDHICKDMSALVAARMRHIPLAPGSDWRDLPNIEVRLSDGTMARKLRYTHHDRKNGRSSSGALRGVCSCVEAGKACDPAARQFNTLIPWCLPHTGNRHNHWAGLYGRLEWDGFFSTTVTNPEPMGKQGRVLHPEQHRVVSVRECARSQGFPDTYRLFGNILDKHRQVGNAVPPPLAKAIGLEIKLCMLAKARESASAKIKEEEAAKD
binds	GST fusion DNMT1 fragment 1 to 446 (domain or fragment, human, UniProt P26358 1-446, looked up, DNA methyltransferase 1 (DNMT1), human, amino acids 1-446; also called N-terminal domain (amino acids 1-446) of DNMT1; source: E. coli BL21, purified on glutathione-Sepharose beads) MPARTAPARVPTLAVPAISLPDDVRRRLKDLERDSLTEKECVKEKLNLLHEFLQTEIKNQLCDLETKLRKEELSEEGYLAKVKSLLNKDLSLENGAHAYNREVNGRLENGNQARSEARRVGMADANSPPKPLSKPRTPRRSKSDGEAKPEPSPSPRITRKSTRQTTITSHFAKGPAKRKPQEESERAKSDESIKEEDKDQDEKRRRVTSRERVARPLPAEEPERAKSGTRTEKEEERDEKEEKRLRSQTKEPTPKQKLKEEPDREARAGVQADEDEDGDEKDEKKHRSQPKDLAAKRRPEEKEPEKVNPQISDEKDEDEKEEKRRKTTPKEPTEKKMARAKTVMNSKTHPPKCIQCGQYLDDPDLKYGQHPPDAVDEPQMLTNEKLSIFDANESGFESYEALPQHKLTCFSVYCKHGHLCPIDTGLIEKNIELFFSGSAKPIYDDD
binds	GST fusion DNMT1 fragment 1081 to 1409 (domain or fragment, human, UniProt P26358 1081-1409, looked up, source: E. coli BL21, purified on glutathione-Sepharose beads) NRFYFLEAYNAKSKSFEDPPNHARSPGNKGKGKGKGKGKPKSQACEPSEPEIEIKLPKLRTLDVFSGCGGLSEGFHQAGISDTLWAIEMWDPAAQAFRLNNPGSTVFTEDCNILLKLVMAGETTNSRGQRLPQKGDVEMLCGGPPCQGFSGMNRFNSRTYSKFKNSLVVSFLSYCDYYRPRFFLLENVRNFVSFKRSMVLKLTLRCLVRMGYQCTFGVLQAGQYGVAQTRRRAIILAAAPGEKLPLFPEPLHVFAPRACQLSVVVDDKKFVSNITRLSSGPFRTITVRDTMSDLPEVRNGASALEISYNGEPQSWFQRQLRGAQYQPIL
